Data on one molecule can be found in publication PMC7705225, “Hfq-Assisted RsmA Regulation Is Central to Pseudomonas aeruginosa Biofilm Polysaccharide PEL Expression”.

The target in this data set is RsmA (Pseudomonas aeruginosa PAO1, UniProt O69078 1-61). Nature of the data set: EMSA; without Hfq. The settings on record: protein: recombinant; tags: His6 (C-terminal, RsmA-His6); chain copies: 2; label: none (SYBR Gold stain).
Sequence of RsmA (O69078 whole entry): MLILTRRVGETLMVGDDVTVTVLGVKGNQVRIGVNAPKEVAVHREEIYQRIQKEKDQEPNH

B1: truncated vfr RNA (structured_RNA)
RNA: CUUUCGGGACUCGGGCAUGGUAGCUAUUACCCACACACCCAAACUCAAACACCUAGACAAGCUGCUCGCACACUGUCACCGCCGCCGCUACACCGCAAAGAGCACCAUCAUCUAUGCCGGCGAUCGCUGCGAU
On to B1, for which the binding result is recorded as “binds”.
